Laboratory results: US20240425583A1, “METHODS AND COMPOSITIONS RELATED TO MCL-1 AND BIM HETERODIMER ANTIBODIES” (priority 2021, published 2024)
Blank lines part the entries; values can stand above or below the molecule they belong to.

Tests used:
[1] = system: MCF-7 breast cancer cells; test: IHC staining of FFPE MCF-7 cells, wild-type vs BIM siRNA; format: cell-based, human; details: BIM-siRNA transfected MCF-7 cells vs wild-type, FIG. 3
Text: (§1) The MCL-1/BIM heterodimer antibody (HSMCB) requires BIM to bind in situ. BIM siRNA was used on both MCF-7 and HCC70 cells (far left, and right middle columns, respectively), and the cells were then formalin-fixed and paraffin embedded into a tissue microarray (TMA) block, sectioned and added to glass slides, and stained with HSMCB. IHC images of the wild-type (WT) staining for both MCF-7 and HCC70 cells are shown in the middle-left, and far right columns, respectively. […] The images across the top panel in FIG. 3 are of an HSMCB antibody having CDRs selected from SEQ ID NO: 9, SEQ ID NO: 10, SEQ ID NO: 11, SEQ ID NO: 12, SEQ ID NO: 13, SEQ ID NO: 14, and having a variable heavy chain selected from SEQ ID NO: 15, and a variable light chain selected from SEQ ID NO: 16; and the images across the bottom panel in FIG. 3 are of an HSMCB antibody having CDRs selected from SEQ ID NO: 1, SEQ ID NO: 2, SEQ ID NO: 3, SEQ ID NO: 4, SEQ ID NO: 5, SEQ ID NO: 6, and having a variable heavy chain selected from SEQ ID NO: 7, and a variable light chain selected from SEQ ID NO: 8.
(§2) The experiments of this example show a set of IHC images relating to the application of the Mcl-1/Bim heterodimer antibody (HSMCB) to formalin-fixed paraffin-embedded (FFPE) specimens from MCF-7 breast cancer cells, and HCC70 triple negative breast cancer cells. […]

[2] = system: HCC70 triple negative breast cancer cells; test: IHC staining of FFPE HCC70 cells, wild-type vs BIM siRNA; format: cell-based, human; details: for HSMCB IHC signal intensity: BIM-siRNA transfected HCC70 cells vs wild-type, FIG. 3
Text: as §1
In the far left panel. IHC images of the HSMCB antibody are shown for both WT HCC70 cells, and Bim-siRNA transfected HCC70 cells. In the middle panel. IHC images of the HSBXB antibody are shown for both WT HCC70 cells, and Bim-siRNA transfected HCC70 cells. In the far right panel. IHC images are shown of HCC70 cells without application of HSMCB or HSBXB. […] The images in the left column of FIG. 4 are of an HSMCB antibody having CDRs selected from SEQ ID NO: 9, SEQ ID NO: 10, SEQ ID NO: 11, SEQ ID NO: 12, SEQ ID NO: 13, SEQ ID NO: 14, and having a variable heavy chain selected from SEQ ID NO: 15, and a variable light chain selected from SEQ ID NO: 16.
as §2

[3] = target: T1, covalent Mcl-1-Bim complex (Homo sapiens, UniProt Q07820); test: Flow cytometry detection of covalent Mcl-1-Bim complex immobilized on GSH beads; format: binding; details: directly labeled and secondary antibody detection, FIG. 12
T1 construct: mutated to delete their transmembrane domains; made in house; host or cells: E. coli BL21 (D3) for the Mcl-1 fusion; peptide UV-crosslinked to it
T1 sequence (Q07820 1-327): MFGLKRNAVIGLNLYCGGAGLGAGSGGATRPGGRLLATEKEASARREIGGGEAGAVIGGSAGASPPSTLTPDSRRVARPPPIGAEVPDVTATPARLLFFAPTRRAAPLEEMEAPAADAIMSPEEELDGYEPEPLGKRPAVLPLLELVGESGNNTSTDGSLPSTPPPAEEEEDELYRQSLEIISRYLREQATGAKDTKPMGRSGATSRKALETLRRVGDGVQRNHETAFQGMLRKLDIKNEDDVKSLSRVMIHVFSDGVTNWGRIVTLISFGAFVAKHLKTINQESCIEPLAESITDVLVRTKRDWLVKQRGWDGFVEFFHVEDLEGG
T1 sequence (O43521 146-166 partner): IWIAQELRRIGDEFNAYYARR
Text: In the experiments on the left side of the graph for HSMCB (i.e., the first two columns from the left on the graph), the HSMCB antibody is an antibody having CDRs selected from SEQ ID NO: 1, SEQ ID NO: 2, SEQ ID NO: 3, SEQ ID NO: 4, SEQ ID NO: 5, SEQ ID NO: 6, and having a variable heavy chain selected from SEQ ID NO: 7, and a variable light chain selected from SEQ ID NO: 8. In the next experiment near the middle of the graph for HSMCB (i.e., the second set of two columns in the middle on the graph), the antibody is an antibody having CDRs selected from SEQ ID NO: 9, SEQ ID NO: 10, SEQ ID NO: 11, SEQ ID NO: 12, SEQ ID NO: 13, SEQ ID NO: 14, and having a variable heavy chain selected from SEQ ID NO: 15, and a variable light chain selected from SEQ ID NO: 16. The antibody reactive with BcL-XL-Bim is used as a negative control, and Mcl1 (which recognizes both Mcl-1 monomer and Mcl-1-Bim complex) is used as a positive control. The signals using a directly labeled primary antibody (i.e., the first column in each set of two columns throughout the graph) and a secondary antibody detection system (i.e., the second column in each set of two columns throughout the graph) are shown.
AML patient samples were BH3 profiled in the experiments of this example. […] Patient samples were fixed, permeabilized, stained with HSMCB and anti-Mcl-1 antibody, and measured by flow cytometry. […]

Mcl-1-Bim bead detection [3]: demonstrated
B1: HSMCB (SEQ ID NO: 15, SEQ ID NO: 16): MCL-1/BIM heterodimer antibody, CDRs SEQ ID NO: 9-14, variable heavy chain SEQ ID NO: 15, variable light chain SEQ ID NO: 16 (antibody, V domains shown)
VH: MDWIWIMLHLLAAATGLQSQVHLQQSGSELRSPGSSVKLSCKDFDSEVFPIAYMSWVRQKPGHGFEWIGDILPSIGRTIYGEKFEDKATLDADTVSNTAYLELNSLTSEDSAIYYCARQDTYYAMDYWGQGTSVTVSS
VL: MHFQVQIFSFLLISASVIMSRGQIVLTQSPAIMSASPGEKVTITCSASSSVSYMHWVQQKPGTSPKLWIYSTSNLASGVPARFRGSGSGTSYSLTISRMEAEDAATYYCQQRSSYPYTFGGGTKLEIK
HSMCB IHC signal intensity [1]: reduced HSMCB IHC signal intensity | HSMCB IHC signal intensity [2]: reduced HSMCB IHC signal intensity | IHC activity ([2]; Bim-siRNA transfected HCC70 cells vs WT, FIG. 4): reduced activity

Mcl-1-Bim bead detection [3]: demonstrated
B2: HSMCB (SEQ ID NO: 7, SEQ ID NO: 8): MCL-1/BIM heterodimer antibody, CDRs SEQ ID NO: 1-6, variable heavy chain SEQ ID NO: 7, variable light chain SEQ ID NO: 8 (antibody, V domains shown)
VH: MNFGLSLIFLVLVLKGVQCEVQLVESGGDLVKPGGSLKLSCAVSGFTFSSYAMSWVRQTPAKRLEWVATISSGGFATYYPDTVKGRFTISRDNAKNTLYLQMSSLRSEDTAMYYCARHGGGSYGWFAYWGQGTLVTVSE
VL: MLSLAPLLSLLLLCVSDSRAETTVTQSPASLSVATGEKVTIRCITSTDIDDDMNWYQQKPGEPPKLLISEGNTLRPGVPSRFSSSGYGTDFVFTIENTLSEDFADYYCLQSDNMPYTFGGGTKLEIK
HSMCB IHC signal intensity [1]: reduced HSMCB IHC signal intensity | HSMCB IHC signal intensity [2]: reduced HSMCB IHC signal intensity
